Reference: publication PMC5430869, “Structure-function analysis of the DNA-binding domain of a transmembrane transcriptional activator”

What was measured:
Details in all cases: protein: recombinant; tags: His6-thioredoxin removed by TEV; blunt
CadC1-107 (DBD) [1] = biological target: T1, CadC1-107 (DBD) (Escherichia coli, UniProt P23890 1-107); test: NMR; EMSA/NMR/ITC: 20 mM BisTris, 150 mM NaCl, pH 6.5, RT (NMR 10% D2O, 298 K; imino spectra 283 K); SPR: 10 mM HEPES pH 7.4, 150 mM NaCl, 3 mM EDTA, 0.05% P20, 25 C
T1 sequence: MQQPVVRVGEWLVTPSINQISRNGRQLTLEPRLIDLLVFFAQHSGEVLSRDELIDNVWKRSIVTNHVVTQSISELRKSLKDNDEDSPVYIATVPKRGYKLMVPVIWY

CadC1-159 WT [2] = biological target: T2, CadC1-159 WT (Escherichia coli, UniProt P23890 1-159); test: SPR; steady state; EMSA/NMR/ITC: 20 mM BisTris, 150 mM NaCl, pH 6.5, RT (NMR 10% D2O, 298 K; imino spectra 283 K); SPR: 10 mM HEPES pH 7.4, 150 mM NaCl, 3 mM EDTA, 0.05% P20, 25 C
T2 sequence: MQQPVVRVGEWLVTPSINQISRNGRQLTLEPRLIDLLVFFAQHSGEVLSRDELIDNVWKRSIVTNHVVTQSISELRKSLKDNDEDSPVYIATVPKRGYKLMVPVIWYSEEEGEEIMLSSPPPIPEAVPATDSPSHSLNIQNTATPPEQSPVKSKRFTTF

CadC1-159 E30R = biological target: T3, CadC1-159 E30R (Escherichia coli, UniProt P23890 1-159, E30R); test: SPR; almost 30-fold; EMSA/NMR/ITC: 20 mM BisTris, 150 mM NaCl, pH 6.5, RT (NMR 10% D2O, 298 K; imino spectra 283 K); SPR: 10 mM HEPES pH 7.4, 150 mM NaCl, 3 mM EDTA, 0.05% P20, 25 C
T3 sequence: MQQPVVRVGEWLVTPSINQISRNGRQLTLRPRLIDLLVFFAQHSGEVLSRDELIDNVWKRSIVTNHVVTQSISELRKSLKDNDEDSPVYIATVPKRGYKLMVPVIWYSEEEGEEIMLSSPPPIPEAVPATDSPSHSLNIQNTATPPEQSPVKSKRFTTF

CadC1-107 (DBD) [3] = biological target: T1, CadC1-107 (DBD); test: NMR; smaller imino CSPs, line broadening; EMSA/NMR/ITC: 20 mM BisTris, 150 mM NaCl, pH 6.5, RT (NMR 10% D2O, 298 K; imino spectra 283 K); SPR: 10 mM HEPES pH 7.4, 150 mM NaCl, 3 mM EDTA, 0.05% P20, 25 C
CadC1-107 (DBD) [4] = biological target: T1, CadC1-107 (DBD); test: EMSA; identical to 41-mer; value only in figure; EMSA/NMR/ITC: 20 mM BisTris, 150 mM NaCl, pH 6.5, RT (NMR 10% D2O, 298 K; imino spectra 283 K); SPR: 10 mM HEPES pH 7.4, 150 mM NaCl, 3 mM EDTA, 0.05% P20, 25 C
CadC1-159 WT [5] = biological target: T2, CadC1-159 WT; test: SPR; steady state; construct called CadC DBD in legend, CadC1-159 in Methods; EMSA/NMR/ITC: 20 mM BisTris, 150 mM NaCl, pH 6.5, RT (NMR 10% D2O, 298 K; imino spectra 283 K); SPR: 10 mM HEPES pH 7.4, 150 mM NaCl, 3 mM EDTA, 0.05% P20, 25 C
CadC1-107 (DBD) [6] = biological target: T1, CadC1-107 (DBD); test: NMR titration; 1:1 model; EMSA/NMR/ITC: 20 mM BisTris, 150 mM NaCl, pH 6.5, RT (NMR 10% D2O, 298 K; imino spectra 283 K); SPR: 10 mM HEPES pH 7.4, 150 mM NaCl, 3 mM EDTA, 0.05% P20, 25 C

B1: Cad1A 14-mer (dsDNA)
DNA 1: GTAAACATTAAATG
DNA 2: CATTTAATGTTTAC
Does B1 bind (CadC1-107 (DBD) [1])?
Result: binds

B2: Cad1 41-mer, biotinylated (SPR) (dsDNA)
DNA 1: TTGTAAACATTAAATGTTTATCTTTTCATGATATCAACTTG
DNA 2: CAAGTTGATATCATGAAAAGATAAACATTTAATGTTTACAA
With B2 as the binder, how does the Kd (CadC1-159 WT [2]) read?
The Kd was 0.38 µM.

What about the binding signal (CadC1-159 E30R) of the same binder?
Its binding signal is ~30 fold increased affinity vs WT.

B3: Cad1C 13-mer (dsDNA)
DNA 1: TGATATCAACTTG
DNA 2: CAAGTTGATATCA
Does B3 bind (CadC1-107 (DBD) [3])?
Result: binds

B4: Cad1B 13-mer (dsDNA)
DNA 1: GTTTATCTTTTCA
DNA 2: TGAAAAGATAAAC
Does B4 bind (CadC1-107 (DBD) [1])?
Result: binds

B5: Cad1AB 26-mer (dsDNA)
DNA 1: GTAAACATTAAATGTTTATCTTTTCA
DNA 2: TGAAAAGATAAACATTTAATGTTTAC
Does B5 bind (CadC1-107 (DBD) [4])?
Result: binds

B6: Cad1 17-mer, biotinylated (SPR) (dsDNA)
DNA 1: TAAACATTAAATGTTTA
DNA 2: TAAACATTTAATGTTTA
B6 was tested. Which Kd (CadC1-159 WT [5]) did it give?
Its Kd is 23 µM.

B7: Cad1 17-mer (dsDNA)
DNA 1: TAAACATTAAATGTTTA
DNA 2: TAAACATTTAATGTTTA
For B7, which Kd (CadC1-107 (DBD) [6]) is on record?
Its Kd is 67 ± 16 µM.
